Results taken from patent US20250320281A1.

What was measured:
Test in all cases: cell-based or functional assay
[1] = molecular target: HIV-1 Env of isolate 92RW008 (subtype A) (HIV-1)
[2] = molecular target: HIV-1 Env of isolate 92TH021 (subtype AE) (HIV-1)
[3] = molecular target: HIV-1 Env of isolate 92UG031 (subtype A) (HIV-1)
[4] = molecular target: HIV-1 Env of isolate 92UG037 (subtype A) (HIV-1)
[5] = molecular target: HIV-1 Env of isolate 92WR009 (subtype A) (HIV-1)
[6] = molecular target: HIV-1 Env of isolate 92WR020 (subtype A) (HIV-1)
[7] = molecular target: HIV-1 Env of isolate 92WR021 (subtype A) (HIV-1)
[8] = molecular target: HIV-1 Env of isolate 92WR024 (subtype A) (HIV-1)
[9] = molecular target: HIV-1 Env of isolate 92WR026 (subtype A) (HIV-1)
[10] = molecular target: HIV-1 Env of isolate 93UG077 (subtype A) (HIV-1)
[11] = molecular target: HIV-1 Env of isolate 93WR029 (subtype A) (HIV-1)
[12] = molecular target: HIV-1 Env of isolate 94 KE 105 (subtype AC) (HIV-1)
[13] = molecular target: HIV-1 Env of isolate 94UG103 (subtype A) (HIV-1)
[14] = molecular target: HIV-1 Env of isolate CMU02 (subtype AE) (HIV-1)
[15] = molecular target: HIV-1 Env of isolate MGRM-AE-001 (subtype AE) (HIV-1)
[16] = molecular target: HIV-1 Env of isolate MGRM-AE-002 (subtype AE) (HIV-1)
[17] = molecular target: HIV-1 Env of isolate MGRM-AE-003 (subtype AE) (HIV-1)
[18] = molecular target: HIV-1 Env of isolate MGRM-AE-004 (subtype AE) (HIV-1)
[19] = molecular target: HIV-1 Env of isolate MGRM-AE-005 (subtype AE) (HIV-1)
[20] = molecular target: HIV-1 Env of isolate MGRM-AE-006 (subtype AE) (HIV-1)
[21] = molecular target: HIV-1 Env of isolate MGRM-G-001 (HIV-1)
[22] = molecular target: HIV-1 Env of isolate MGRM-G-004 (HIV-1)
[23] = molecular target: HIV-1 Env of isolate MGRM-G-006 (HIV-1)
[24] = molecular target: HIV-1 Env of isolate MGRM-G-009 (HIV-1)
[25] = molecular target: HIV-1 Env of isolate MGRM-G-011 (HIV-1)
[26] = molecular target: HIV-1 Env of isolate MGRM-G-013 (HIV-1)
[27] = molecular target: HIV-1 Env of isolate MGRM-G-014 (HIV-1)
[28] = molecular target: HIV-1 Env of isolate MGRM-G-015 (HIV-1)
[29] = molecular target: HIV-1 Env of isolate MGRM-G-016 (HIV-1)
[30] = molecular target: HIV-1 Env of isolate MGRM-G-017 (HIV-1)
[31] = molecular target: HIV-1 Env of isolate MGRM-G-019 (HIV-1)
[32] = molecular target: HIV-1 Env of isolate MGRM-G-024 (HIV-1)
[33] = molecular target: HIV-1 Env of isolate MGRM-G-025 (HIV-1)
[34] = molecular target: HIV-1 Env of isolate MGRM-G-027 (HIV-1)
[35] = molecular target: HIV-1 Env of isolate MGRM-G-028 (HIV-1)
[36] = molecular target: HIV-1 Env of isolate VLGCA1 (subtype A) (HIV-1)
[37] = molecular target: HIV-1 envelope glycoprotein (Env) of isolate 6535.3 (HIV-1)
[38] = molecular target: HIV-1 envelope glycoprotein (Env) of isolate 92BR020 (HIV-1)
[39] = molecular target: HIV-1 envelope glycoprotein (Env) of isolate 93TH305 (HIV-1)
[40] = molecular target: HIV-1 envelope glycoprotein (Env) of isolate APV_13 (HIV-1)
[41] = molecular target: HIV-1 envelope glycoprotein (Env) of isolate APV_17 (HIV-1)
[42] = molecular target: HIV-1 envelope glycoprotein (Env) of isolate APV_6 (HIV-1)
[43] = molecular target: HIV-1 envelope glycoprotein (Env) of isolate CAAN.A2 (HIV-1)
[44] = molecular target: HIV-1 envelope glycoprotein (Env) of isolate JR-FL (HIV-1)
[45] = molecular target: HIV-1 envelope glycoprotein (Env) of isolate MGRM-Chronic-B-001 (HIV-1)
[46] = molecular target: HIV-1 envelope glycoprotein (Env) of isolate MGRM-Chronic-B-002 (HIV-1)
[47] = molecular target: HIV-1 envelope glycoprotein (Env) of isolate MGRM-Chronic-B-003 (HIV-1)
[48] = molecular target: HIV-1 envelope glycoprotein (Env) of isolate MGRM-Chronic-B-004 (HIV-1)
[49] = molecular target: HIV-1 envelope glycoprotein (Env) of isolate MGRM-Chronic-B-008 (HIV-1)
[50] = molecular target: aMLV envelope (negative control pseudovirus)

Sequence of 4995_P16 (PGT-145) (antibody) (VH): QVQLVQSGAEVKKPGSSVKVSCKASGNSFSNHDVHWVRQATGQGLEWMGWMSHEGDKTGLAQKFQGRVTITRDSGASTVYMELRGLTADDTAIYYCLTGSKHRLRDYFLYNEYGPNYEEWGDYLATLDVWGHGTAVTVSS
Sequence of 4995_P16 (PGT-145) (antibody) (VL): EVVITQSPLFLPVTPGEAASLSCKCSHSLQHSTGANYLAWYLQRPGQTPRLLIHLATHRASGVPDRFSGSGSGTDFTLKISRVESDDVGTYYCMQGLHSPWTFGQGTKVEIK

Which IC50 (µg/mL), pseudovirus neutralization [1] does the source give for 4995_P16 (PGT-145) (antibody) here?
The IC50 (µg/mL), pseudovirus neutralization was 0.4 µg/mL.

And the IC50 (µg/mL), pseudovirus neutralization [2]?
Its IC50 (µg/mL), pseudovirus neutralization is 0.013 µg/mL.

And the IC50 (µg/mL), pseudovirus neutralization [3]?
Its IC50 (µg/mL), pseudovirus neutralization is 3.22 µg/mL.

What about the IC50 (µg/mL), pseudovirus neutralization [4] of the same substance?
The IC50 (µg/mL), pseudovirus neutralization was 3.15 µg/mL.

And the IC50 (µg/mL), pseudovirus neutralization [5]?
Its IC50 (µg/mL), pseudovirus neutralization is 0.026 µg/mL.

And the IC50 (µg/mL), pseudovirus neutralization [6]?
Its IC50 (µg/mL), pseudovirus neutralization is 0.997 µg/mL.

What about the IC50 (µg/mL), pseudovirus neutralization [7] of the same substance?
Its IC50 (µg/mL), pseudovirus neutralization is 1.62 µg/mL.

What about the IC50 (µg/mL), pseudovirus neutralization [8] of the same substance?
The IC50 (µg/mL), pseudovirus neutralization was 0.069 µg/mL.

And the IC50 (µg/mL), pseudovirus neutralization [9]?
The IC50 (µg/mL), pseudovirus neutralization was 1.45 µg/mL.

What about the IC50 (µg/mL), pseudovirus neutralization [10] of the same substance?
Its IC50 (µg/mL), pseudovirus neutralization is over 50 µg/mL.

And the IC50 (µg/mL), pseudovirus neutralization [11]?
The IC50 (µg/mL), pseudovirus neutralization was over 50 µg/mL.

What about the IC50 (µg/mL), pseudovirus neutralization [12] of the same substance?
Its IC50 (µg/mL), pseudovirus neutralization is 1.32 µg/mL.

What about the IC50 (µg/mL), pseudovirus neutralization [13] of the same substance?
The IC50 (µg/mL), pseudovirus neutralization was 0.331 µg/mL.

What about the IC50 (µg/mL), pseudovirus neutralization [14] of the same substance?
Its IC50 (µg/mL), pseudovirus neutralization is 1.43 µg/mL.

And the IC50 (µg/mL), pseudovirus neutralization [15]?
The IC50 (µg/mL), pseudovirus neutralization was 20.9 µg/mL.

What about the IC50 (µg/mL), pseudovirus neutralization [16] of the same substance?
Its IC50 (µg/mL), pseudovirus neutralization is 1.87 µg/mL.

What about the IC50 (µg/mL), pseudovirus neutralization [17] of the same substance?
Its IC50 (µg/mL), pseudovirus neutralization is 0.552 µg/mL.

And the IC50 (µg/mL), pseudovirus neutralization [18]?
The IC50 (µg/mL), pseudovirus neutralization was 0.006 µg/mL.

What about the IC50 (µg/mL), pseudovirus neutralization [19] of the same substance?
Its IC50 (µg/mL), pseudovirus neutralization is 0.967 µg/mL.

What about the IC50 (µg/mL), pseudovirus neutralization [20] of the same substance?
The IC50 (µg/mL), pseudovirus neutralization was over 50 µg/mL.

What about the IC50 (µg/mL), pseudovirus neutralization [21] of the same substance?
The IC50 (µg/mL), pseudovirus neutralization was 0.028 µg/mL.

What about the IC50 (µg/mL), pseudovirus neutralization [22] of the same substance?
The IC50 (µg/mL), pseudovirus neutralization was over 50 µg/mL.

What about the IC50 (µg/mL), pseudovirus neutralization [23] of the same substance?
Its IC50 (µg/mL), pseudovirus neutralization is 0.286 µg/mL.

What about the IC50 (µg/mL), pseudovirus neutralization [24] of the same substance?
Its IC50 (µg/mL), pseudovirus neutralization is 0.982 µg/mL.

What about the IC50 (µg/mL), pseudovirus neutralization [25] of the same substance?
Its IC50 (µg/mL), pseudovirus neutralization is 0.028 µg/mL.

What about the IC50 (µg/mL), pseudovirus neutralization [26] of the same substance?
Its IC50 (µg/mL), pseudovirus neutralization is over 50 µg/mL.

And the IC50 (µg/mL), pseudovirus neutralization [27]?
Its IC50 (µg/mL), pseudovirus neutralization is 0.144 µg/mL.

And the IC50 (µg/mL), pseudovirus neutralization [28]?
The IC50 (µg/mL), pseudovirus neutralization was 10.5 µg/mL.

And the IC50 (µg/mL), pseudovirus neutralization [29]?
The IC50 (µg/mL), pseudovirus neutralization was 0.081 µg/mL.

What about the IC50 (µg/mL), pseudovirus neutralization [30] of the same substance?
The IC50 (µg/mL), pseudovirus neutralization was 0.205 µg/mL.

And the IC50 (µg/mL), pseudovirus neutralization [31]?
Its IC50 (µg/mL), pseudovirus neutralization is 0.041 µg/mL.

And the IC50 (µg/mL), pseudovirus neutralization [32]?
The IC50 (µg/mL), pseudovirus neutralization was 0.06 µg/mL.

And the IC50 (µg/mL), pseudovirus neutralization [33]?
Its IC50 (µg/mL), pseudovirus neutralization is over 50 µg/mL.

What about the IC50 (µg/mL), pseudovirus neutralization [34] of the same substance?
The IC50 (µg/mL), pseudovirus neutralization was 0.433 µg/mL.

What about the IC50 (µg/mL), pseudovirus neutralization [35] of the same substance?
The IC50 (µg/mL), pseudovirus neutralization was 0.046 µg/mL.

What about the IC50 (µg/mL), pseudovirus neutralization [36] of the same substance?
The IC50 (µg/mL), pseudovirus neutralization was 8.01 µg/mL.

And the IC50 (µg/mL), pseudovirus neutralization [37]?
Its IC50 (µg/mL), pseudovirus neutralization is over 50 µg/mL.

What about the IC50 (µg/mL), pseudovirus neutralization [38] of the same substance?
The IC50 (µg/mL), pseudovirus neutralization was 1.05 µg/mL.

And the IC50 (µg/mL), pseudovirus neutralization [39]?
Its IC50 (µg/mL), pseudovirus neutralization is 0.032 µg/mL.

What about the IC50 (µg/mL), pseudovirus neutralization [40] of the same substance?
The IC50 (µg/mL), pseudovirus neutralization was 0.337 µg/mL.

What about the IC50 (µg/mL), pseudovirus neutralization [41] of the same substance?
The IC50 (µg/mL), pseudovirus neutralization was 0.488 µg/mL.

What about the IC50 (µg/mL), pseudovirus neutralization [42] of the same substance?
The IC50 (µg/mL), pseudovirus neutralization was 0.104 µg/mL.

What about the IC50 (µg/mL), pseudovirus neutralization [43] of the same substance?
Its IC50 (µg/mL), pseudovirus neutralization is 7.08 µg/mL.

And the IC50 (µg/mL), pseudovirus neutralization [44]?
The IC50 (µg/mL), pseudovirus neutralization was 30.4 µg/mL.

What about the IC50 (µg/mL), pseudovirus neutralization [45] of the same substance?
Its IC50 (µg/mL), pseudovirus neutralization is 3.22 µg/mL.

What about the IC50 (µg/mL), pseudovirus neutralization [46] of the same substance?
The IC50 (µg/mL), pseudovirus neutralization was 3.67 µg/mL.

And the IC50 (µg/mL), pseudovirus neutralization [47]?
Its IC50 (µg/mL), pseudovirus neutralization is 0.045 µg/mL.

And the IC50 (µg/mL), pseudovirus neutralization [48]?
The IC50 (µg/mL), pseudovirus neutralization was 0.023 µg/mL.

And the IC50 (µg/mL), pseudovirus neutralization [49]?
Its IC50 (µg/mL), pseudovirus neutralization is 1.9 µg/mL.

What about the IC50 (µg/mL), pseudovirus neutralization [50] of the same substance?
Its IC50 (µg/mL), pseudovirus neutralization is over 50 µg/mL.
